{
  "source": "patent US11160869B2",
  "about": "(priority 2019, dated 2021)",
  "molecules": {"B1": {"name": "IL-10 delivery construct: recombinant homodimeric fusion protein: N-terminal methionine, cholix386 domain, polyGlySer spacer, recombinant human IL-10 (protein)", "chain": "MVEEALNIFDECRSPCSLTPEPGKPIQSKLSIPSDVVLDEGVLYYSMTINDEQNDIKDEDKGESIITIGEFATVRATRHYVNQDAPFGVIHLDITTENGTKTYSYNRKEGEFAINWLVPIGEDSPASIKISVDELDQQRNIIEVPKLYSIDLDNQTLEQWKTQGNVSFSVTRPEHNIAISWPSVSYKAAQKEGSRHKRWAHWHTGLALCWLVPMDAIYNYITQQNCTLGDNWFGGSYETVAGTPKVITVKQGIEQKPVEQRIHFSKGNAMSALAAHRVCGVPLETLARSRKPRDLTDDLSCAYQAQNIVSLFVATRILFSHLDSVFTLNLDEQEPEVAERLSDLRRINENNPGMVTQVLTVARQIYNDYVTHHPGLTPEQTSAGAQAGGGGSGGGGSGGGGSPGQGTQSENSCTHFPGNLPNMLRDLRDAFSRVKTFFQMKDQLDNLLLKESLLEDFKGYLGCQALSEMIQFYLEEVMPQAENQDPDIKAHVNSLGENLKTLRLRLRRCHRFLPCENKSKAVEQVKNAFNKLQEKGIYKAMSEFDIFINYIEAYMTMKIRN", "modifications": "homodimer"}},
  "key": {"[1]": {"system": "CD3+ cells and F4/80 macrophages", "assay": "Cellular target in lamina propria after oral gavage (CD3, F4/80, pSTAT3)", "type": "in vivo, mouse", "conditions": "40 min after oral gavage"}, "[2]": {"system": "colonic tissue", "assay": "Pan-colonic administration in NHP: colonic biopsies (IL-10, IL-1Ra, pSTAT3/STAT3, cytokines, gene expression)", "type": "in vivo, cynomolgus monkeys", "procedure": "IL-10 delivery construct solution (at concentrations of 0.1, 0.3 and 1.0 mg/mL for the low, mid and high-dose groups respectively) was administered via the rectal route using sigmoidoscopy and a syringe connected to a spray nozzle with a 360° spray pattern. Serial biopsy samples were collected by sigmoidoscopy (pre-dose, 0.25, 0.5, 0.75, 8 and 24-28 hours post dose). Serial plasma samples from 0 min pre-dose to between 24-28 hours post-dose were collected for analysis for the IL-10 delivery construct.\nPhosphorylation of STAT3 is an early downstream event following IL-10 receptor activation.\nColonic biopsies at each tissue timepoint were analyzed for local concentration of IL-10 delivery construct, total IL-10, IL-1Ra, soluble cytokines, activation of STAT3 and gene expression following administration of the IL-10 delivery construct. […] In addition, STC1, MTNR1A and VNN2 encode proteins that suppress the NFkβ signaling pathway, a pathway through which key pro-inflammatory cytokines are regulated. […] This is consistent with the ability of IL-10 to suppress these cells' activation or differentiation towards a pro-inflammatory immune phenotype."}, "[3]": {"system": "growth factors, chemokines and cytokines", "type": "in vivo, mice"}, "[4]": {"system": "ulcerative colitis", "assay": "Phase 1b multiple ascending dose in patients with active ulcerative colitis", "type": "in vivo, human", "conditions": "for placebo-adjusted mean reduction of FCP: baseline FCP >150 μg/g", "procedure": "Data was gathered on the safety, tolerability, pharmacokinetics, pharmacodynamics, and initial clinical response following a multiple ascending dose (MAD) of the IL-10 delivery construct in adult patients with active UC over 14 days of treatment. […] A coating with a weight ratio of 50:50 of Eudragit® L30D55: Eudragit® FS30D was applied with a thickness of 14.8 to 16.0 mg/cm^2 and a weight of approximately 76 mg to each capsule. Placebo capsules were generated using similarly coated empty capsules.\nA total of four cohorts were dosed with either 1 mg, 3 mg, 10, mg or 30 mg of the IL-10 delivery construct, randomized 3:1 to receive the IL-10 delivery construct or a placebo administered once daily for fourteen days. The goal of the trial was to assess the safety of the IL-10 delivery construct and any change in UC disease activity, through endoscopy, histology, biomarkers, and serum samples. Stool samples and colonic biopsies were obtained at baseline and day 14 of treatment to assess fecal calprotectin as well as histology based upon blinded central read of the Geboes scoring system. Fecal calprotectin is an objective marker of clinical response in UC studies and the Geboes scoring system is a measure of histological response. The Geboes scoring system of this example used a 0-22 point histologic scoring system in which higher scores represent more severe disease."}, "[5]": {"assay": "Lyophilization buffer screens: HMW/dimer/monomer by SE-HPLC before and after lyophilization", "type": "physicochemical", "procedure": "Size exclusion chromatography (SE-HPLC) can be used to characterize the size distribution of the IL-10 delivery construct. The percentage of IL-10 delivery construct found in dimer, monomer, and aggregate forms in a liquid composition or a lyophilized composition if reconstituted in a liquid can be determined by SEC-HPLC (FIG. 34).\nFurther testing based on the results from the initial liquid formulation screen, initial lyophilization feasibility studies were conducted using the conditions in TABLE 9. Glycine and mannitol, known to be useful in the lyophilization of proteins as […] bulking agents were added to this screen, histidine at pH 7.0 added to provide a more granular evaluation of the effect of pH in the 7.0-7.5 range, and trehalose was added as an option to sucrose as an osmolyte. FIGS. 21 and 22 show the percentage of target constructs in the dimer form before and after incubation at 25° C. for 3 days (FIG. 21) and before and after 5 freeze/thaw cycles (FIG. 22).\nBased on the results from this initial study a second lyophilization screen was conducted using the formulations listed in TABLE 10."}, "[6]": {"system": "STAT3", "assay": "STAT3 phosphorylation in J774.2 macrophage cells"}, "[7]": {"system": "human SMI-100 monolayers", "assay": "Transport across polarized human small intestinal cell monolayers (SMI-100), western blot", "conditions": "apical to basal, 2 hr"}, "[8]": {"conditions": "1 mg once daily for 14 days, n = 3 UC patients"}, "[9]": {"conditions": "3 mg once daily for 14 days, n = 3 UC patients"}, "[10]": {"conditions": "10 mg once daily for 14 days, n = 3 UC patients"}, "[11]": {"conditions": "30 mg once daily for 14 days, n = 3 UC patients"}, "[12]": {"conditions": "secondary formulation buffer screen, 0.3% Poloxamer"}},
  "data": [
    {"molecule": "B1", "values": [
      {"measurement": "co-localization of pSTAT3 with CD3+ cells", "setting": "[1]", "result": "A moderate proportion of CD3+ cells"},
      {"measurement": "co-localization of pSTAT3 with F4/80 macrophages", "setting": "[1]", "result": "extensive co-localization with pSTAT3"},
      {"measurement": "IL-1Ra concentration in colonic tissue", "setting": "[2]; 1, 3, 10 mg", "result": "not further augmented"},
      {"measurement": "total IL-10 in colonic tissue", "setting": "[2]; 1, 3, 10 mg", "result": "dose-dependent increase in total IL-10"},
      {"measurement": "colonic MMP1, MMP3, MMP19", "setting": "[2]; 8 h", "result": "also upregulated"},
      {"measurement": "colonic TIMP1, tissue repair and anti-microbial genes", "setting": "[2]; 8 h", "result": "also increased"},
      {"measurement": "colonic anti-inflammatory genes (CD163, miR24-2, NOX1 ...)", "setting": "[2]; 8 h", "result": "upregulated a number of anti-inflammatory genes"},
      {"measurement": "colonic pro-inflammatory genes (MHCII, PLA2G2D, CCL20, CCL13)", "setting": "[2]; 8 h", "result": "decreased a number of pro-inflammatory genes"},
      {"measurement": "colonic expression of CYP1A1", "setting": "[2]; 8 h, 12-hour fast prior to treatment", "result": "downregulated"},
      {"measurement": "colonic tissue pSTAT3/STAT3", "setting": "[2]; all doses tested", "result": "Higher ratios of colonic tissue pSTAT3/STAT3"},
      {"measurement": "induction of pro-inflammatory cytokines in colonic tissue", "setting": "[2]; cynomolgus monkey, in vivo", "result": "not observed"},
      {"measurement": "time of peak total IL-10 in colonic tissue", "setting": "[2]; first sampling time point", "result": 15, "unit": "min"},
      {"measurement": "plasma TGF-β relative to Vehicle", "setting": "[3]; 3.0 mg/kg", "result": "reduced"},
      {"measurement": "production of IL-12 and IL-17", "setting": "[3]; 9.0 mg/kg", "result": "prevented"},
      {"measurement": "plasma MCSF", "setting": "[3]; highest dose (9 mg/kg)", "result": "reduced"},
      {"measurement": "oxazolone-induced changes in LIX, LIF, IP10", "setting": "[3]; mouse, in vivo", "result": "mitigated"},
      {"measurement": "plasma IL-3, IL-4 (9.0 mg/kg), IL-28 (3.0 and 9.0 mg/kg), IL-31 (0.3 mg/kg)", "setting": "[3]; mouse, in vivo", "result": "to near-base line levels"},
      {"measurement": "plasma MIP1α", "setting": "[3]; mouse, in vivo", "result": "trend towards a reduction"},
      {"measurement": "oxazolone-induced increase in plasma GCSF/CSF3", "setting": "[3]; prophylactic pre-treatment", "result": "attenuated"},
      {"measurement": "plasma IL-13 and IL-15", "setting": "[3]; vs Vehicle", "result": "trend towards an IL-10 delivery construct-mediated decrease"},
      {"measurement": "# of TEASs", "setting": "[4]; [8]", "result": 2},
      {"measurement": "TEASs (% pts)", "setting": "[4]; [8]", "result": 67, "unit": "%"},
      {"measurement": "placebo-adjusted mean reduction of FCP", "setting": "[4]; 1 mg, 14 days", "result": 44, "unit": "%"},
      {"measurement": "# of TEASs", "setting": "[4]; [9]", "result": 7},
      {"measurement": "TEASs (% pts)", "setting": "[4]; [9]", "result": 67, "unit": "%"},
      {"measurement": "placebo-adjusted mean reduction of FCP", "setting": "[4]; 3 mg, 14 days", "result": 27, "unit": "%"},
      {"measurement": "FCP activity at higher doses", "setting": "[4]; 10 mg and 30 mg", "result": "diminution of activity at higher doses"},
      {"measurement": "# of TEASs", "setting": "[4]; [10]", "result": 5},
      {"measurement": "TEASs (% pts)", "setting": "[4]; [10]", "result": 67, "unit": "%"},
      {"measurement": "Geboes score of one UC patient (22 point scale)", "setting": "[4]; 10 mg, pre-dose to 14 days", "result": "improved from a score of 15 to a score of three"},
      {"measurement": "# of TEASs", "setting": "[4]; [11]", "result": 6},
      {"measurement": "TEASs (% pts)", "setting": "[4]; [11]", "result": 67, "unit": "%"},
      {"measurement": "tolerability in patients with UC", "setting": "[4]; 1, 3, 10, 30 mg once daily 14 days", "result": "well tolerated"},
      {"measurement": "CRP levels compared to placebo", "setting": "[4]; 1 and 3 mgs, baseline CRP greater than 5 mg/L", "result": "greater reductions in CRP levels"},
      {"measurement": "TEAEs in the 12 active patients", "setting": "[4]; 14 days", "result": 20},
      {"measurement": "patients with reduced Geboes scores", "setting": "[4]; 14 days, (6/10) active patients", "result": 60, "unit": "%"},
      {"measurement": "# of TEASs", "setting": "[4]; All Active, n = 12 UC patients", "result": 20},
      {"measurement": "TEASs (% pts)", "setting": "[4]; All Active, n = 12 UC patients", "result": 67, "unit": "%"},
      {"measurement": "detection in systemic circulation", "setting": "[4]; human, in vivo", "result": "not detected in systemic circulation"},
      {"measurement": "treatment emergent AEs of anemia or thrombocytopenia", "setting": "[4]; human, in vivo", "result": "no treatment emergent AEs of anemia or thrombocytopenia were observed"},
      {"measurement": "stability with respect to aggregation", "setting": "[5]; initial lyophilization feasibility study, conditions of TABLE 9", "result": "more stable at pH7.5 with sucrose and glycine"},
      {"measurement": "Pre-Lyophilization (%) Dimer", "setting": "[5]; [12]", "result": 89.2, "unit": "%"},
      {"measurement": "Pre-Lyophilization (%) HMW", "setting": "[5]; [12]", "result": 2.6, "unit": "%"},
      {"measurement": "Pre-Lyophilization (%) Monomer", "setting": "[5]; [12]", "result": 8.2, "unit": "%"},
      {"measurement": "amplitude of pSTAT3/total STAT3", "setting": "[6]", "result": "~1.47", "unit": "%"},
      {"measurement": "EC50", "setting": "[6]; read-out: EC50, phosphorylation of STAT3, 20 min stimulation", "result": 264, "unit": "pM"},
      {"measurement": "transport across monolayers relative to rhIL-10", "setting": "[7]", "result": "to a greater extent"}
    ]}
  ]
}
